{"source": "paper PMC2739136", "proteins": {"B1": {"name": "native TraR (wild type) (protein)", "chain": "MQHWLDKLTDLAAIEGDECILKTGLADIADHFGFTGYAYLHIQHRHITAVTNYHRQWQSTYFDKKFEALDPVVKRARSRKHIFTWSGEHERPTLSKDERAFYDHASDFGIRSGITIPIKTANGFMSMFTMASDKPVIDLDREIDAVAAAATIGQIHARISFLRTTPTAEDAAWLDPKEATYLRWIAVGKTMEEIADVEGVKYNSVRVKLREAMKRFDVRSKAHLTALAIRRKLI"}}, "test_in_all_cases": "pull-down", "key": {"MBP-TraR A149V, P33905": {"target": "T1, MBP-TraR A149V, P33905", "T1 chain": "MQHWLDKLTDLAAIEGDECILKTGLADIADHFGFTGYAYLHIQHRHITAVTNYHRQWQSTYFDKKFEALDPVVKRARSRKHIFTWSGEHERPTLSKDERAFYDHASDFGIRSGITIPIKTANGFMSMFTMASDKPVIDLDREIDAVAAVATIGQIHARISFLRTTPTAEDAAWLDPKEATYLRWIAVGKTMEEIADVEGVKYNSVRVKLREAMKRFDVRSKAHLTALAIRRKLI"}, "MBP-TraR K119A, P33905": {"target": "T2, MBP-TraR K119A, P33905", "T2 chain": "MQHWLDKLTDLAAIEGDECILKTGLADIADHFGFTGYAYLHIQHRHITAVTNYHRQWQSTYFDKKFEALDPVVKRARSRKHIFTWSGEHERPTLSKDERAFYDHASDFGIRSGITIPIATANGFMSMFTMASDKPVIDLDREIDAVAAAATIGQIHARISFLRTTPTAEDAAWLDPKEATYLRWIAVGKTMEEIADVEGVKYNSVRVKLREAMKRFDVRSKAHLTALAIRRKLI"}, "MBP-TraR V146E, P33905": {"target": "T3, MBP-TraR V146E, P33905", "T3 chain": "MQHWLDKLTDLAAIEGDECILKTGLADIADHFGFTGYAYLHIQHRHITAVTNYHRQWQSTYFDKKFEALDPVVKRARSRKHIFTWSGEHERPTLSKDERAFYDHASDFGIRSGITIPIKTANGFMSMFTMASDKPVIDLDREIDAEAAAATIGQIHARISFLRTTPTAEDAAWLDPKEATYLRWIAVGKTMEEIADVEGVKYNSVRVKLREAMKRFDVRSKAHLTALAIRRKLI"}, "MBP-TraR G153A, P33905": {"target": "T4, MBP-TraR G153A, P33905", "T4 chain": "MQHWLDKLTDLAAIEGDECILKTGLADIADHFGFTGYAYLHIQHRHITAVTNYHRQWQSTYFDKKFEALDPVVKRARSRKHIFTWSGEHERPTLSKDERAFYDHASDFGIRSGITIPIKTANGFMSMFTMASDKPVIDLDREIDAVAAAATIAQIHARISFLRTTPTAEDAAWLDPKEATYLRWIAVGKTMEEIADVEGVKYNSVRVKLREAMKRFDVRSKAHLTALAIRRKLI"}, "MBP-TraR L5M, P33905": {"target": "T5, MBP-TraR L5M, P33905", "T5 chain": "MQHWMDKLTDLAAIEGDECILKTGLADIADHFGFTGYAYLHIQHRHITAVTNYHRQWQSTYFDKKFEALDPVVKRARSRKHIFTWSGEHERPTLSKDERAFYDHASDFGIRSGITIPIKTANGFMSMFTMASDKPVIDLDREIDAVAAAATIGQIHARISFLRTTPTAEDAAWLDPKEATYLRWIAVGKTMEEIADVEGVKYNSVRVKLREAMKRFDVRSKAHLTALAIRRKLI"}, "MBP-TraR I229Y, P33905": {"target": "T6, MBP-TraR I229Y, P33905", "T6 chain": "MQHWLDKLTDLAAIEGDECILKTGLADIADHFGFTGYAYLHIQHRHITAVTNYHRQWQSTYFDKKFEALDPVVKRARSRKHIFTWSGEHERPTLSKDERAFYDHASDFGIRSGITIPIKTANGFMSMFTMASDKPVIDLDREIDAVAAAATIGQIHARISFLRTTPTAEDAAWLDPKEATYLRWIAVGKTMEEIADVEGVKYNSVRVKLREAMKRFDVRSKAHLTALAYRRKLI"}, "MBP-TraR I155F, P33905": {"target": "T7, MBP-TraR I155F, P33905", "T7 chain": "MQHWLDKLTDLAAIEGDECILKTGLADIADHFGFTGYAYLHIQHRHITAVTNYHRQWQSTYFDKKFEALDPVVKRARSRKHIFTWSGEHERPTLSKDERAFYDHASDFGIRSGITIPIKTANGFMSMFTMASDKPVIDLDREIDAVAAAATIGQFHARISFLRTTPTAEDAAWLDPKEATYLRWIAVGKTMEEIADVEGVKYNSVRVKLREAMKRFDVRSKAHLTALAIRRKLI"}, "MBP-TraR V146A, P33905": {"target": "T8, MBP-TraR V146A, P33905", "T8 chain": "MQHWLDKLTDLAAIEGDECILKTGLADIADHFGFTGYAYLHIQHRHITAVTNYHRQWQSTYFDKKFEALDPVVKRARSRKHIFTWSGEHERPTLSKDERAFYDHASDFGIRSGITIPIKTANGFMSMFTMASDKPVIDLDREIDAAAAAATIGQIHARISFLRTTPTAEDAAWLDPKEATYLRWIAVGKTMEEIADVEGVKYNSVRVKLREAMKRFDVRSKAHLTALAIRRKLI"}}, "data": [{"protein": "B1", "values": [{"measurement": "heterodimer formation (% of wild type) (% of wild type)", "setting": "MBP-TraR A149V, P33905", "value": 19}, {"measurement": "heterodimer formation (% of wild type) (% of wild type)", "setting": "MBP-TraR K119A, P33905", "value": 94}, {"measurement": "heterodimer formation (% of wild type) (% of wild type)", "setting": "MBP-TraR V146E, P33905", "value": 52}, {"measurement": "heterodimer formation (% of wild type) (% of wild type)", "setting": "MBP-TraR G153A, P33905", "value": 61}, {"measurement": "heterodimer formation (% of wild type) (% of wild type)", "setting": "MBP-TraR L5M, P33905", "value": 99}, {"measurement": "heterodimer formation (% of wild type) (% of wild type)", "setting": "MBP-TraR I229Y, P33905", "value": 23}, {"measurement": "heterodimer formation (% of wild type) (% of wild type)", "setting": "MBP-TraR I155F, P33905", "value": 50}, {"measurement": "heterodimer formation (% of wild type) (% of wild type)", "setting": "MBP-TraR V146A, P33905", "value": 61}]}]}
